Test results as given in paper PMC9638933.

Tests used:
LigD = LigD (UniProt P9WNV3 1-759); assay: fluorescence polarization; EMSA: 50 mM Tris-HCl pH 8.0, 50 mM NaCl, 1 mM DTT, 5 mM MgCl2, 4% glycerol, 0.025 mg/ml BSA, 10 nM DNA, 30 C 20 min; FP: 10 mM Tris-HCl pH 8, 10 mM NaCl, 10% glycerol, 1 mM TCEP, 50 nM DNA, 30 C; ternary EMSA: 20 mM Tris-HCl pH 8.0, 5 mM MgCl2, 5% glycerol, 37 C; bridging: 20 mM Tris-HCl pH 7.5, 50 mM KCl, 5 mM EDTA, 1 mM DTT, 5% glycerol, 40 ug/ml BSA, room temperature; details: protein: recombinant; tags: His (Ni-NTA purified; pMCSG7); label: 5' 6-FAM on strand 1; blunt
LigD, sequence (P9WNV3 whole entry): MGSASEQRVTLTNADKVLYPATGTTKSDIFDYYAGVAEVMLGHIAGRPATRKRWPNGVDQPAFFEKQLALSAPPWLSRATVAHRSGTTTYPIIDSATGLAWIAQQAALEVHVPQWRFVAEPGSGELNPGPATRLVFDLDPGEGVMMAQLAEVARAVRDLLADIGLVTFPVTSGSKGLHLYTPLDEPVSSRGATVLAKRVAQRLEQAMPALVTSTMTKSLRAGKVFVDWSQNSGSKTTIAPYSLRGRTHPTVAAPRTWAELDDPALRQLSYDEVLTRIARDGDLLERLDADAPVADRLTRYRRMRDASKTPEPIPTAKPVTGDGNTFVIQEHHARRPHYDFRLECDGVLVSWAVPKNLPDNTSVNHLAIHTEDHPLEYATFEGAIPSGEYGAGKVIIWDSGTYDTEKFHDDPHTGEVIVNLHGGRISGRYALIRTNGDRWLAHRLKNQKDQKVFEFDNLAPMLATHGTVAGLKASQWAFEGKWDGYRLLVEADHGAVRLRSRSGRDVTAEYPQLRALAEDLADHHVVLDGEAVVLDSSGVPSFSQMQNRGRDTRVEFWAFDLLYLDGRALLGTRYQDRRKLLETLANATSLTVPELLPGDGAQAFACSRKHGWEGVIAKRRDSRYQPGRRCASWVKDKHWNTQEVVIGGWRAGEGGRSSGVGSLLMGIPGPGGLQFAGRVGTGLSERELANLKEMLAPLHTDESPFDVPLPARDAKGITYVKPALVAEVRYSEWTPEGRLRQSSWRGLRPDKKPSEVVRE

Kucore;POL = Kucore;POL (Mycobacterium …, UniProt P9WKD9;P9WNV3 1-238;1-287, |); assay: EMSA; supershift; EMSA: 50 mM Tris-HCl pH 8.0, 50 mM NaCl, 1 mM DTT, 5 mM MgCl2, 4% glycerol, 0.025 mg/ml BSA, 10 nM DNA, 30 C 20 min; FP: 10 mM Tris-HCl pH 8, 10 mM NaCl, 10% glycerol, 1 mM TCEP, 50 nM DNA, 30 C; ternary EMSA: 20 mM Tris-HCl pH 8.0, 5 mM MgCl2, 5% glycerol, 37 C; bridging: 20 mM Tris-HCl pH 7.5, 50 mM KCl, 5 mM EDTA, 1 mM DTT, 5% glycerol, 40 ug/ml BSA, room temperature; details: protein: recombinant;recombinant; tags: His (Ni-NTA purified; pMCSG7);His (Ni-NTA purified); chain copies: 2;1; label: 5' 6-FAM on strand 1; blunt
Kucore;POL, sequence (P9WKD9 1-238, chain 1 of 2): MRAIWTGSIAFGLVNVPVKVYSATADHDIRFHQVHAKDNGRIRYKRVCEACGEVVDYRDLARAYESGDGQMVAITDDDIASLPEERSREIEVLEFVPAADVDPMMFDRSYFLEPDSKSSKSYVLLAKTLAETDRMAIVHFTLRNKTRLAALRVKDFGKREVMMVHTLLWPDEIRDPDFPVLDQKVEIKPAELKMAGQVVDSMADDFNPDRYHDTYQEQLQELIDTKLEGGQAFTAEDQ
Kucore;POL, sequence (P9WNV3 1-287, chain 2 of 2): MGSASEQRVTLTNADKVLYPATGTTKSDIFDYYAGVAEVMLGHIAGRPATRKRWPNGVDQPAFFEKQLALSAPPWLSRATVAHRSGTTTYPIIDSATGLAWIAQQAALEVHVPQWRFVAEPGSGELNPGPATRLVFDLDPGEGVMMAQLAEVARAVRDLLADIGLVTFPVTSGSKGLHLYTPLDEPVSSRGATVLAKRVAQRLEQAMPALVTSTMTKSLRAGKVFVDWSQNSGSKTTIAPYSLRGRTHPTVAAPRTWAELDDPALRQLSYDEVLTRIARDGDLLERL

Kumin;LIG = Kumin;LIG (Mycobacterium …, UniProt P9WKD9;P9WNV3 1-259;454-759, |); assay: as above; details: protein: recombinant;recombinant; tags: His (Ni-NTA purified; pMCSG7);His (Ni-NTA purified); chain copies: 2;1; label: 5' 6-FAM on strand 1; blunt
Kumin;LIG, sequence (P9WKD9 1-259, chain 1 of 2): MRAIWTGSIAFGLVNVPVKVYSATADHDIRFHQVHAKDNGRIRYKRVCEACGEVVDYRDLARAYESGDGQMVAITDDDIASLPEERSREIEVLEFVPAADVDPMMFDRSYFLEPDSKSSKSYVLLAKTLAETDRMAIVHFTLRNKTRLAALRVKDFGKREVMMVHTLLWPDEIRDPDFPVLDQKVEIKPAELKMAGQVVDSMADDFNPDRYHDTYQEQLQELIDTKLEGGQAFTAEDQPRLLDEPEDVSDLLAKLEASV
Kumin;LIG, sequence (P9WNV3 454-759, chain 2 of 2): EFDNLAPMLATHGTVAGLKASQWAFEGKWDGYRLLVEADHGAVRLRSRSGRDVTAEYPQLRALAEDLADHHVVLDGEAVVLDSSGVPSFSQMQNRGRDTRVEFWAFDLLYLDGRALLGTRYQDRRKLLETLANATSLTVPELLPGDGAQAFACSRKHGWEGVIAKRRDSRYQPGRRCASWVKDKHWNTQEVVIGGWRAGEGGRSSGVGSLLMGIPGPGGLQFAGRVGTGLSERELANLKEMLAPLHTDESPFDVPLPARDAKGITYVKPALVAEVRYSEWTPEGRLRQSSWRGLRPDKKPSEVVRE

Kumin;POL = Kumin;POL (Mycobacterium …, UniProt P9WKD9;P9WNV3 1-259;1-287, |); assay: as above; details: protein: recombinant;recombinant; tags: His (Ni-NTA purified; pMCSG7);His (Ni-NTA purified); chain copies: 2;1; label: 5' 6-FAM on strand 1; blunt
Kumin;POL, sequence (P9WNV3 1-287, one chain of several): as the sequence (P9WNV3 1-287, chain 2 of 2) above

Kucore;LIG = Kucore;LIG (Mycobacterium …, UniProt P9WKD9;P9WNV3 1-238;454-759, |); assay: as above; details: protein: recombinant;recombinant; tags: His (Ni-NTA purified; pMCSG7);His (Ni-NTA purified); chain copies: 2;1; label: 5' 6-FAM on strand 1; blunt
Kucore;LIG, sequence (P9WNV3 454-759, one chain of several): as the sequence (P9WNV3 454-759, chain 2 of 2) above

KuWT;POL = KuWT;POL (Mycobacterium …, UniProt P9WKD9;P9WNV3 1-273;1-287, |); assay: as above; details: protein: recombinant;recombinant; tags: His (Ni-NTA purified; pMCSG7);His (Ni-NTA purified); chain copies: 2;1; label: 5' 6-FAM on strand 1; blunt
KuWT;POL, sequence (P9WNV3 1-287, one chain of several): as the sequence (P9WNV3 1-287, chain 2 of 2) above

B1: 40 bp dsDNA (dsDNA)
DNA 1: CAGGGTAAGTGTGGAGGTGTAGGGAAGGGAATGTTGTCTG
DNA 2: CAGACAACATTCCCTTCCCTACACCTCCACACTTACCCTG
**Q.** With B1 as the binder, how does the Kd (LigD) read?
**A.** 350 ± 30 nM

**Q.** Does B1 bind (Kucore;POL)?
**A.** binds

**Q.** Does B1 bind (Kumin;LIG)?
**A.** binds

**Q.** Does B1 bind (Kumin;POL)?
**A.** binds

**Q.** Does B1 bind (Kucore;LIG)?
**A.** binds

**Q.** Does B1 bind (KuWT;POL)?
**A.** binds
